Source: the nanobody polyreactivity screen of Harvey et al. (2022)

assay: yeast display, Sf9 membrane polyspecificity reagent, FACS + sequencing; frameworks hold sequencing errors
Method in brief: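 After 36–48 hours of galactose induction, yeast (Saccharomyces cerevisiae BJ5465) displaying a synthetic nanobody library were stained at 4 °C for 1 hour with 10% biotinylated, detergent-solubilized Sf9 membrane reagent. Streptavidin microbeads enriched the stained cells before FACS sorting into low and high (top ~1%) gates on anti-HA and streptavidin fluorescence. Each clone's polyreactivity label reflects its gate of origin.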

Question: For “QVQLVESGGGLVQAGGSLRRTCAASGSIFVGYAMGWYRQEPGKERELVASITNGDSTNYADSVKGRFTISRDNAKNTVSYQMNSLKPEDTAVYYCAADYYSVHPSGWYGYEYWGQGTQVTVSS”, which “polyreactivity (PSR sort gate)” value is on record?
Answer: The value was “low polyreactivity”.

Question: With “QVQLVESGGGLVQAGGSLRLSCAASGRIFFIYAMGWYRQAPGKERELVAGINRTGGSTYYADSVKGRFTISRDNAKNTVYLQMNSLKPEDTAVYYCAAVSYYASDYRYDYWGQGTQVTVSS” as the sequence, how does the “polyreactivity (PSR sort gate)” value read?
Answer: The value was “low polyreactivity”.

Question: Which “polyreactivity (PSR sort gate)” value does the source give for “QVQLVESGGGLVQAGGSLRLSCAASGSIFQYNVMGRYRQEPGKEREFVADISSSGGSTYYADSVKGRFTISRDNAKNTVYLQMNSLKPEATAVYYCNARSKVAYDRHYYWGQGTQVTVSS” here?
Answer: The value was “low polyreactivity”.

Question: For “QVHLVESGGGLVQAGGILRLSCAASGFIYTKYTMGSYRQAPGKEREMVAAITGRGTSTYADSVKGRFTISRDNAKNSVYLQMNRLKPEDTAVYYCASVGWFADFMFSDINGYYWGQGTEVTVSS”, which “polyreactivity (PSR sort gate)” value is on record?
Answer: The value was “low polyreactivity”.

Question: With “QVQLVESGGGLVQAGGSLRLSCAASGRIFYWYAMGWYRQAPGKERELVAAISSAGTTYYADSVKGRFTISRDNAKNTVYLQMNSLKPEDTAVYYCAATLGFYRRSEYDYWGQGTQVTVSS” as the sequence, how does the “polyreactivity (PSR sort gate)” value read?
Answer: The value was “high polyreactivity”.

Question: Which “polyreactivity (PSR sort gate)” value does the source give for “QVQLVESGGGLVQAGGSLRLSCAASGGIITYYDMGWYSQAPGKDREFVAAINVSGTRTYYADSVKGRFTISRDNAKNTVYLEMNSLKPEDTAVYYGATRYRVGFFSWYDYWGQGTQVTVSS” here?
Answer: Its value is “high polyreactivity”.

Question: With “QVQLVESGGGLVQAGGSLRLSCAASGSIFRFYAMGWYRQAPGKERELVAGISRRGGTTYYADSVKGRFTISRDNAKNTVYLQMNSLKPEDTAVYYCAKRSFGYKSRPAFNYWGQGTQVTVSS” as the sequence, how does the “polyreactivity (PSR sort gate)” value read?
Answer: Its value is “high polyreactivity”.

Question: With “QVQLVESGGGLVQAGGSLRLSCAASGRTFSTNAMGWYIQAPGKEREFVAAITGSGGSTYYADSVKGRFTISRDNAKNTVYLQMNSLKPEDTAVYYCAADRPGSRFIDVDYWGQGTQVTVSS” as the sequence, how does the “polyreactivity (PSR sort gate)” value read?
Answer: The value was “high polyreactivity”.

Question: For “QVQLVESGGGLVQAGGSLRLSCAASGSTFGSYGMGWYRQAPGKEREVVAVITYSGDRTYYADSVKGRFTISRDNAKNTVYLQMNSLKPEDTAVYYCAADRSYRVSEYDYWGQGTQVTVSS”, which “polyreactivity (PSR sort gate)” value is on record?
Answer: Its value is “low polyreactivity”.

Question: With “QVQLVESGGGLVQAGGSLRLSCAASGSTLAPYVKGWYRQAPGKERELVAVISTRTGRTYYADSVKGRFTISRDNAKNTVYLQMNSLKPEDTAVYYCAAPVYPYQVQTYDYWGQGTQVTVSS” as the sequence, how does the “polyreactivity (PSR sort gate)” value read?
Answer: The value was “high polyreactivity”.

Question: For “QVQLVESGGGLVQAGGSLRLSCAASGSTFVRYVMGWYRQATGKERELVAAISRRGGSTYYADSVKGRFTISRDNAKNTVYLQMNSLKPEDTAVYYCARTVGYRTLLESDSWGQGTQVTVSS”, which “polyreactivity (PSR sort gate)” value is on record?
Answer: Its value is “high polyreactivity”.

Question: With “QVQLVESGGGLVQAGGSLRLSCAASGITFYVYAMGWYRQAPGKERELVASITSGGGSTDYADSVKGRFTISRDNAKNTVYLQMNSLKPEDTAVYYCAARYPLLNQLYDFDYWGQGTQVTVSS” as the sequence, how does the “polyreactivity (PSR sort gate)” value read?
Answer: Its value is “low polyreactivity”.

Question: Which “polyreactivity (PSR sort gate)” value does the source give for “QVQLVESGGGLVQAGGSLRLSCAASGFIFDLYAMGWYRQAPGKERELVAAISPSGGSTYYADSVKGRFTISRDNAKNTVYLQMNSLKPEDTAVYYCNTGIRWAISKEYDYWGQGTQVTVSS” here?
Answer: Its value is “high polyreactivity”.

Question: For “QVQLVESGGGLVQAGGSLRLSCAASGRIFLRYAMGWYRQAPGKERELVAVITWSGGSTNYADSVKGRFTISRDNAKNTVYLQMNSLKPEDTAVYYCAVDNSGRSWPYDYWGQGTQVTVSS”, which “polyreactivity (PSR sort gate)” value is on record?
Answer: The value was “low polyreactivity”.

Question: Which “polyreactivity (PSR sort gate)” value does the source give for “QVQLVESGGGLVQAGGSLRLSCAASGFTLGGYAMGWYRQAPGKEREFVAAISGRGGRTYYADSVKGRFTISRDNAKNTVYLQMNSLKPEDTAVYYCAAPTNHWTRLSGDYWGQGTQVTVSS” here?
Answer: The value was “high polyreactivity”.

Question: For “QVQLVESGGGLVQAGGSLRLSCAASGFTRIYAMGWYRQAPGKERELVAAISQRGGRTYYADSVKGRFTISRDNAKNTVYLQMNSLKPEDTAVYYCAVRGPYQGRTRYYYWGQGTQVTVSS”, which “polyreactivity (PSR sort gate)” value is on record?
Answer: Its value is “high polyreactivity”.

Question: For “QVQLVESGVGLVQAGGSLRLSCAASGFTFDDNAMGWYRQAPGKERDFVASITNSTGSTYADSVKGRFTISRDNAKNTFYLQMNSLKPEDTAVDYCAVDNISNWAVENDYWGQGTQVTVSS”, which “polyreactivity (PSR sort gate)” value is on record?
Answer: Its value is “low polyreactivity”.

Question: For “QVQLVESGGGLVQAGGSLRLSCAASGRIFGVYAMGWYRQAPGKERELVAAISEGGGSTNYADSVKGRFSISRDNAKNTVYLQMNSLKPEDTAVYYCAATYRTGVRRYYSWGQGTQVTVSS”, which “polyreactivity (PSR sort gate)” value is on record?
Answer: The value was “low polyreactivity”.

Question: Which “polyreactivity (PSR sort gate)” value does the source give for “QVQLEDSGGGLVQAGGSLRLSCAASGRTSVGYVMGWYRQAPGKERELVAAISASGGSTYYADSVKGRFTISRDNAKNTVYLQMNSLKPEDTAVYYCNAPVYVPYDYWGQGTQVTVSS” here?
Answer: The value was “low polyreactivity”.

Question: For “QVQLVESGGGVVQAGGSLRLSCAASGRIFRINGMGWYRQAPGKEREFVAAITSGGGTYYADSVKGRFTITRDNAKNTVYLQMNSLKPEDTAVYYCAAPSYRTRYYYWGQGTQVTVSS”, which “polyreactivity (PSR sort gate)” value is on record?
Answer: Its value is “high polyreactivity”.

Question: With “QVKLVESGGGLVQAGGSLRLSCAASGSTFLYYGMGWYRQAPGTERELVATITWRGGRTYYADSVKGRFTISRDNAKNTVYLQMNSLKPEDTAVYYCAARVVGSYRKPYPYGLYYWGQGTQVTVSS” as the sequence, how does the “polyreactivity (PSR sort gate)” value read?
Answer: Its value is “high polyreactivity”.

Question: Which “polyreactivity (PSR sort gate)” value does the source give for “QVQLQESGGVQAGGSLRQSCAASGYISRSDVMGWYRQAPGKERELVATINNATITYYADSVKGRFTISRDNAKNTVYLQMNSLKPEDTAVHYFAVVQSDTDSLYYWGQGTQVTVSS” here?
Answer: Its value is “low polyreactivity”.

Question: With “QVQLVESGGGLVQAGGSLRLSCAASGYIFTYYAMGWYRQAPGKERELVAAISGSDGNTYYADSVKGRFTISRDNAKKTDYLEMISLKPEDTAVYYCAKSGGLTFRSQRYDYWGQGTQVNVSS” as the sequence, how does the “polyreactivity (PSR sort gate)” value read?
Answer: The value was “low polyreactivity”.

Question: Which “polyreactivity (PSR sort gate)” value does the source give for “QVQLVESGGGLVQAGRSLRLSCAASGLIFYCYVMGWYRQAPRKERELVAGISRNSGSTYYADSVKGRFTISRDNAKNTVYLQMNSLKPEDTAVYYCAKAYYRRYAAPGYDYWGQVTQVTVSS” here?
Answer: The value was “low polyreactivity”.

Question: For “QVQLVESGGGLVQAGGSLRLSCAASGFIFAYYAMGWYRQAPGKERELVAAISSSGGSTYYADSVKGRFTISRDNAKNTVYLQMNSLKPEDTAVYFCNRRWVAPYFYSRYYSGQEEGYWGQGTQVTVSS”, which “polyreactivity (PSR sort gate)” value is on record?
Answer: Its value is “high polyreactivity”.

Question: For “QVQLVDSGGGLVQAGGSLRLSCAASGSTSYWYAMGWYRLAPWKEMELFATIRSRGGSTSYADSVKGRFTISRDNAKNTVYLQMNSLKPEDTAVYYCAVEYQSWKGWWFDYWGQGTQVTVSS”, which “polyreactivity (PSR sort gate)” value is on record?
Answer: Its value is “high polyreactivity”.

Question: Which “polyreactivity (PSR sort gate)” value does the source give for “QVQLVESGGGLVQAGGSLRLSCAASGSIFGPYAMGWYRQAPGKERELVAAISTRGGRTYYADSVKGRFTISRDNAKNTVYLQMISLKPEDTAVYYCNDRRSDSRSYDYWGQGTQVTVSS” here?
Answer: Its value is “high polyreactivity”.

Question: Which “polyreactivity (PSR sort gate)” value does the source give for “QVQLVESGGGLVQAGGSLRLSCAASGSTFDIYAMGWYRQAPGKERELVAAITFSGGSTYYADSVKGRFTISRDNAKNTVYLQMNSLKPEDTAVDYCAARNDYYKTFSGYDYWGQGTQVTVSS” here?
Answer: The value was “low polyreactivity”.

Question: With “QVQLVESGGGLVQAGGSLRLSCAASGINFWYYAMVGYRQATGKERELDAAITGGSTYYADSVKGRFTISRDNAKNTVYLQMISLKQEDTAVYYCNADSVFEYWDYDYWGQGTQVTVSS” as the sequence, how does the “polyreactivity (PSR sort gate)” value read?
Answer: Its value is “low polyreactivity”.

Question: Which “polyreactivity (PSR sort gate)” value does the source give for “QVQLVESGVGLYQAGGSLRLSCAASGSIFEENAMVWYRQAPGKEMELVAAITIGGRTNYADSVKGRFTISRDNAKNTVYLEMNSLKPEDTAVYYCASDLSSIKYWLFWTRYYYWGQGTQVNVSS” here?
Answer: Its value is “low polyreactivity”.

Question: With “QVQLVESGGGLVQAGGSLRLSCAAYGSTFFRYAMGWYRQAPGKERELVAAISASTGSTYYADSVKGRFTISRDNAKNTVYLQMNSLKPEDTAVYYCNAELGYGTNDNWYDYWGKGTQVTVSS” as the sequence, how does the “polyreactivity (PSR sort gate)” value read?
Answer: Its value is “low polyreactivity”.

Question: Which “polyreactivity (PSR sort gate)” value does the source give for “QVQLVESGGGLVQAGGSLRLSCAASGFIITGNAMGWYRKAPGKERELVAAITSGGNTYYADSVKGRFTISRDNAKNTVYLQMNSLKPEDTAVYYCAKYVPHWRILMEYWGQGTQVTVSS” here?
Answer: The value was “low polyreactivity”.

Question: Which “polyreactivity (PSR sort gate)” value does the source give for “QVQLVESGGGLVQAGGSLRLSCAASGSIFYHNAMGWYRQAPGKERELVAAITWSGSTTYYADSVKGRFTISRDNAKKTVYLQMNSLKPEDTAVYYCNAGHRHGHYDYWGQGTQVTVSS” here?
Answer: Its value is “low polyreactivity”.

Question: Which “polyreactivity (PSR sort gate)” value does the source give for “QVQLVESGGGLVQAGGSLRLSCAASGIIFYPYAMGWYIQAPGKERELVAGISSSGGSTYYADSVKGRFTISRDNAKNTVYLQMNSLKPEDTAVYYCAVGGERGARIGSNHRGSRYDYWGQGTQVTVSS” here?
Answer: The value was “high polyreactivity”.

Question: With “QVQLKERGGGLVQAGGSLRLSCAAIGPISRRSTMGWYRQAPGKERELVTDITRGTNTNYADSVKGRFTISRDNAKNTEYLQMNSLKPEDTAVYYCEAYGVLKPSRGDAVFHRYWGQGTQVTVSS” as the sequence, how does the “polyreactivity (PSR sort gate)” value read?
Answer: Its value is “low polyreactivity”.

Question: For “QDQLVESGGGLVQAGGSLRLSCAASGSTFSYYAMGWYRQAPGKERELVAAITWSDGSTYYADSVKGRFTISRDYAKNTVYLQMNSLKPEDTAVYYCNAEISQLDGVTFKYDYWGQGTQVTVSS”, which “polyreactivity (PSR sort gate)” value is on record?
Answer: The value was “low polyreactivity”.

Question: With “QVQLVESGGGLVQAGGSLRLSCAASGSTFIVYAMGWYRQAPGKERELVAAIRGRGGSTYYADSVKGRFTISRDNAKNTVYLQMNSLKPEDTAVYYCAARGISPQEMYYWGQGTQVTVSS” as the sequence, how does the “polyreactivity (PSR sort gate)” value read?
Answer: Its value is “high polyreactivity”.

Question: Which “polyreactivity (PSR sort gate)” value does the source give for “QVQLVESGGGLVHAGGSLRLSCSASGYTFAYNAMGWYRQAPGKERELVAAITSRAGSTHYADSVKGRFTISRDNAKNTVYLQMNSLKPEDTAVYYCAAKRYNRLRSYRYSDREDYWGQGTQVSVSS” here?
Answer: The value was “high polyreactivity”.

Question: Which “polyreactivity (PSR sort gate)” value does the source give for “QVQLVESGGGLVQPGGSLRLSCAASGIIFGSYAMGWYRQAPGKERELFAAITKSGGSTFYADSVKGRYTISRDNAKNTVYLQMNSLKPEDTAVYYCTAVKYRYLEYNYWGQGTQVTVSS” here?
Answer: Its value is “high polyreactivity”.

Question: For “QVQLVESGGGLVQAGGSLRLSCAASGRILRTYAMGWYRQAPGKERELVAAITRGGSTYYADSVKGRFTISRDNAKNTVYLQMNSLKPEDTAVYYCNKYKSPYITLSQYGYWGQGTQVTVSS”, which “polyreactivity (PSR sort gate)” value is on record?
Answer: Its value is “high polyreactivity”.
